Sequences and labels used below:
B1: Protein PTHB1 (Homo sapiens), Q3SYG4 (parent)
chain: MSLFKARDWWSTILGDKEEFDQGCLCLANVDNSGNGQDKIIVGSFMGYLRIFSPHPAKTGDGAQAEDLLLEVDLRDPVLQVEVGKFVSGTEMLHLAVLHSRKLCVYSVSGTLGNVEHGNQCQMKLMYEHNLQRTACNMTYGSFGGVKGRDLICIQSMDGMLMVFEQESYAFGRFLPGFLLPGPLAYSSRTDSFLTVSSCQQVESYKYQVLAFATDADKRQETEQQKLGSGKRLVVDWTLNIGEQALDICIVSFNQSASSVFVLGERNFFCLKDNGQIRFMKKLDWSPSCFLPYCSVSEGTINTLIGNHNNMLHIYQDVTLKWATQLPHIPVAVRVGCLHDLKGVIVTLSDDGHLQCSYLGTDPSLFQAPNVQSRELNYDELDVEMKELQKIIKDVNKSQGVWPMTEREDDLNVSVVVSPNFDSVSQATDVEVGTDLVPSVTVKVTLQNRVILQKAKLSVYVQPPLELTCDQFTFEFMTPDLTRTVSFSVYLKRSYTPSELEGNAVVSYSRPTDRNPDGIPRVIQCKFRLPLKLICLPGQPSKTASHKITIDTNKSPVSLLSLFPGFASQSDDDQVNVMGFHFLGGARITVLASKTSQRYRIQSEQFEDLWLITNELILRLQEYFEKQGVKDFACSFSGSIPLQEYFELIDHHFELRINGEKLEELLSERAVQFRAIQRRLLARFKDKTPAPLQHLDTLLDGTYKQVIALADAVEENQGNLFQSFTRLKSATHLVILLIALWQKLSADQVAILEAAFLPLQEDTQELGWEETVDAAISHLLKTCLSKSSKEQALNLNSQLNIPKDTSQLKKHITLLCDRLSKGGRLCLSTDAAAPQTMVMPGGCTTIPESDLEERSVEQDSTELFTNHRHLTAETPRPEVSPLQGVSE
partner: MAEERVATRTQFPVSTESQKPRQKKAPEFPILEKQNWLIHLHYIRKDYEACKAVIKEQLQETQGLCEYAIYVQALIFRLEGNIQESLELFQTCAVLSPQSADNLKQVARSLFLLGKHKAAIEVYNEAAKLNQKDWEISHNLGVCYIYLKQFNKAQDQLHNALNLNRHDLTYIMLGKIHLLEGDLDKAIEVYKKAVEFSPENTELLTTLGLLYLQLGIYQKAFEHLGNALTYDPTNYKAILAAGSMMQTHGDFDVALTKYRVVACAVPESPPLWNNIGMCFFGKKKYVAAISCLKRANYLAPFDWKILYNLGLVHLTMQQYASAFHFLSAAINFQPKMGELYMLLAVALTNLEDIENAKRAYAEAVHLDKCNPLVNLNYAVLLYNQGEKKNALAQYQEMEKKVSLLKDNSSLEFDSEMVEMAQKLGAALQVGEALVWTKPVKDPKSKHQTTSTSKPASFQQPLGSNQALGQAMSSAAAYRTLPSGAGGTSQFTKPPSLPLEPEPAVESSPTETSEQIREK
B2: BBSome complex member BBS2 (Homo sapiens), Q9BXC9 (parent)
chain: MLLPVFTLKLRHKISPRMVAIGRYDGTHPCLAAATQTGKVFIHNPHTRNQHVSASRVFQSPLESDVSLLSINQAVSCLTAGVLNPELGYDALLVGTQTNLLAYDVYNNSDLFYREVADGANAIVLGTLGDISSPLAIIGGNCALQGFNHEGSDLFWTVTGDNVNSLALCDFDGDGKKELLVGSEDFDIRVFKEDEIVAEMTETEIVTSLCPMYGSRFGYALSNGTVGVYDKTSRYWRIKSKNHAMSIHAFDLNSDGVNELITGWSNGKVDARSDRTGEVIFKDNFSSAIAGVVEGDYRMDGHIQLICCSVDGEIRGYLPGTAEMRGNLMDTSAEQDLIRELSQKKQNLLLELRNYEENAKAELASPLNEADGHRGIIPANTRLHTTLSVSLGNETQTAHTELRISTSNDTIIRAVLIFAEGIFTGESHVVHPSIHNLSSSICIPIVPPKDVPVDLHLKAFVGYRSSTQFHVFESTRQLPRFSMYALTSLDPASEPISYVNFTIAERAQRVVVWLGQNFLLPEDTHIQNAPFQVCFTSLRNGGHLHIKIKLSGEITINTDDIDLAGDIIQSMASFFAIEDLQVEADFPVYFEELRKVLVKVDEYHSVHQKLSADMADHSNLIRSLLVGAEDARLMRDMKTMKSRYMELYDLNRDLLNGYKIRCNNHTELLGNLKAVNQAIQRAGRLRVGKPKNQVITACRDAIRSNNINTLFKIMRVGTASS
partner: B1 chain

In one experiment the parent is B1. Conditions: with bbs4_human BBS4, Q96RK4.
Regarding C826R, the “effect of a mutation on the interaction” value is listed as “disrupting interaction strength”. The same measure, in the same setting: the result for T434A reads “with no effect”; that for V450E, “with no effect”; that for V505K, “with no effect”. Still for that read-out and setting: the value for F580E was “with no effect”. For the variant G823A, the “effect of a mutation on the interaction” value is reported as “with no effect”.

For D700K, the “effect of a mutation on the interaction” value is “with no effect”. On the same count and under the same terms, the result for D700E reads “with no effect”. Regarding E622A, the “effect of a mutation on the interaction” value is “with no effect”. Same read-out and setting: the result for F653A reads “with no effect”. As to I751E, the “effect of a mutation on the interaction” value is recorded as “with no effect”. Still for that read-out and setting: the value for L808K was “with no effect”; that for K532E was “with no effect”; that for T725K was “with no effect”. As to E873K, the “effect of a mutation on the interaction” value is given as “with no effect”.

On to R726K, for which the “effect of a mutation on the interaction” value is listed as “with no effect”. Q717A: the “effect of a mutation on the interaction” value is given as “with no effect”.

Consider Q791E, for which the “effect of a mutation on the interaction” value is reported as “with no effect”.

For the variant Q791K, the “effect of a mutation on the interaction” value is reported as “with no effect”.

Take L784K: the “effect of a mutation on the interaction” value is given as “with no effect”. Regarding T595K, the “effect of a mutation on the interaction” value was “with no effect”. Same read-out and setting: the value for L465A was “with no effect”. Consider T844K, for which the “effect of a mutation on the interaction” value was “with no effect”. Same read-out and setting: the result for L666E reads “disrupting interaction strength”; that for L562E, “with no effect”; that for S507K, “with no effect”. Still for that read-out and setting: the value for W610E was “with no effect”.

For the variant P537A, the “effect of a mutation on the interaction” value was “with no effect”. For I812E, the “effect of a mutation on the interaction” value is “with no effect”. Take L882A: the “effect of a mutation on the interaction” value is listed as “with no effect”.

With P464E, the “effect of a mutation on the interaction” value was “with no effect”.

For the variant F566A, the “effect of a mutation on the interaction” value is “with no effect”. Same read-out and setting: the value for S820K was “with no effect”. Take Y460E: the “effect of a mutation on the interaction” value is reported as “with no effect”.

On to G767E, for which the “effect of a mutation on the interaction” value is “with no effect”. Still for that read-out and setting: the value for D817E was “with no effect”. P840E: the “effect of a mutation on the interaction” value is recorded as “with no effect”. On the same count and under the same terms, the result for H694Y reads “disrupting interaction strength”; that for F563K, “with no effect”. On to T478E, for which the “effect of a mutation on the interaction” value is recorded as “with no effect”. For N503K, the “effect of a mutation on the interaction” value is “with no effect”. Still for that read-out and setting: the result for Q597A reads “with no effect”; that for Y599A, “with no effect”.

I846E: the “effect of a mutation on the interaction” value was “with no effect”. Regarding V749K, the “effect of a mutation on the interaction” value is “with no effect”. Consider E664A, for which the “effect of a mutation on the interaction” value is given as “with no effect”. On the same count and under the same terms, the value for D480K was “with no effect”; that for S593E was “with no effect”; that for L698A was “with no effect”.

The variants in the next experiment derive from B2. Conditions: with pthb1_human BBS9, Q3SYG4.
Regarding S466A, the “effect of a mutation on the interaction” value was “with no effect”. As for S466K, the “effect of a mutation on the interaction” value is “with no effect”. Still for that read-out and setting: the result for V606E reads “with no effect”. The same measure, in the same setting: the value for V716A was “with no effect”; that for V716E was “with no effect”. Still for that read-out and setting: the result for F575A reads “with no effect”; that for C534K, “with no effect”; that for W513A, “disrupting interaction strength”.

H428K: the “effect of a mutation on the interaction” value is “with no effect”. Same read-out and setting: the result for A564K reads “with no effect”; that for S439E, “disrupting interaction strength”. Regarding G552A, the “effect of a mutation on the interaction” value was “with no effect”.

On to Q581E, for which the “effect of a mutation on the interaction” value is “with no effect”. Still for that read-out and setting: the value for D330K was “with no effect”; that for A485S was “disrupting interaction strength”; that for P452E was “with no effect”. With I679E, the “effect of a mutation on the interaction” value is recorded as “with no effect”. On to I679A, for which the “effect of a mutation on the interaction” value is “with no effect”. The same measure, in the same setting: the result for D566K reads “with no effect”; that for F472E, “with no effect”; that for N540K, “with no effect”. On the same count and under the same terms, the value for E505K was “with no effect”. Still for that read-out and setting: the value for F518A was “with no effect”; that for D700E was “with no effect”; that for D700K was “with no effect”. I445E: the “effect of a mutation on the interaction” value was “disrupting interaction strength”. On the same count and under the same terms, the result for V446A reads “with no effect”; that for T406K, “with no effect”; that for L350A, “with no effect”.

Regarding L633E, the “effect of a mutation on the interaction” value is given as “with no effect”.

Consider Y658E, for which the “effect of a mutation on the interaction” value is on record as “with no effect”. For V533E, the “effect of a mutation on the interaction” value is listed as “disrupting interaction strength”. Still for that read-out and setting: the value for Y589E was “with no effect”; that for Y589K was “with no effect”. Consider L363K, for which the “effect of a mutation on the interaction” value is recorded as “with no effect”.

C442K: the “effect of a mutation on the interaction” value was “with no effect”. Take E583A: the “effect of a mutation on the interaction” value is recorded as “with no effect”.

Variants of B2 are the subject of a further experiment. Particulars: with pthb1_human BBS9, Q3SYG4. The source holds these as a separate data set.
In the case of W513E, the “effect of a mutation on the interaction” value is listed as “disrupting interaction strength”.

In another experiment the parent is B2. Particulars: with pthb1_human BBS9, Q3SYG4. The source holds these as a separate data set.
For W513E, the “effect of a mutation on the interaction” value is “with no effect”.
